The record followed here is publication PMC8390506, “Interaction of spindle assembly factor TPX2 with importins-α/β inhibits protein phase separation” (The Journal of Biological Chemistry, 2021).

The term stoichiometry N denotes the number of molecules, sites or subunits per partner or assembly.

The chains are these.
B1: TPX2 N terminus (a.a. 1-480) (domain or fragment, Xenopus laevis, UniProt Q6NUF4 1-480, looked up)
chain: MEDTQDTYSYDAPSIFNFSSFHEDHNADSWFDQVTNAENIPPDQRRLSETSVNTEQNSKVEPVQTTPSKDDVSNSATHVCDVKSQSKRSSRRMSKKHRQKLLVKMKDTHLEKETAPPEYPPCKKLKGSSSKGRHAPVIKSQSTSSHHSMTSPKPKAQLTMPSTPTVLKRRNVLVKAKNSEEQELEKMQELQKEMLENLKKNEHSMKVAITGAGQPVKTFIPVTKPVDFHFKTDDRLKRTANQPEGDGYKAVDFASELRKHPPSPVQVTKGGHTVPKPFNLSKGKRKHEEASDYVSTAEQVIAFYKRTPARYHLRSRQREMEGPSPVKMIKTKLTNPKTPLLQTKGRHRPVTCKSAAELEAEELEMINQYKFKAQELDTRILEGGPVLLKKPLVKEPTKAIGFDLEIEKRIQQREKKEEIEEETFTFHSRPCPSKMLTDVVGVPLKKLLPVTVPQSPAFALKNRVRIPAQEEKQEEMVPVI
notes: TPX2, Xenopus laevis, amino acids 1-480 (disordered N-terminal region); also called N-terminal region (a.a. 1-480) of TPX2; source: recombinant, purified to >95% purity
B2: Targeting Protein for XKlp2 (TPX2), full length, wild type (natural protein, Xenopus laevis, UniProt Q6NUF4 1-716, looked up)
chain: MEDTQDTYSYDAPSIFNFSSFHEDHNADSWFDQVTNAENIPPDQRRLSETSVNTEQNSKVEPVQTTPSKDDVSNSATHVCDVKSQSKRSSRRMSKKHRQKLLVKMKDTHLEKETAPPEYPPCKKLKGSSSKGRHAPVIKSQSTSSHHSMTSPKPKAQLTMPSTPTVLKRRNVLVKAKNSEEQELEKMQELQKEMLENLKKNEHSMKVAITGAGQPVKTFIPVTKPVDFHFKTDDRLKRTANQPEGDGYKAVDFASELRKHPPSPVQVTKGGHTVPKPFNLSKGKRKHEEASDYVSTAEQVIAFYKRTPARYHLRSRQREMEGPSPVKMIKTKLTNPKTPLLQTKGRHRPVTCKSAAELEAEELEMINQYKFKAQELDTRILEGGPVLLKKPLVKEPTKAIGFDLEIEKRIQQREKKEEIEEETFTFHSRPCPSKMLTDVVGVPLKKLLPVTVPQSPAFALKNRVRIPAQEEKQEEMVPVIKATRMPHYGVPFKPKLVEQRQVDVCPFSFCDRDKERQLQKEKRLDELRKDEVPKFKAQPLPQFDNIRLPEKKVKMPTQQEPFDLEIEKRGASKLQRWQQQIQEELKQQKEMVVFKARPNTVVHQEPFVPKKENRSLTESLSGSIVQEGFELATAKRAKERQEFDKCLAETEAQKSLLEEEIRKRREEEEKEEISQLRQELVHKAKPIRKYRAVEVKASDVPLTVPRSPNFSDRFKC
notes: TPX2, Xenopus laevis, full length; 1 to 716; Named GFP-TPX2 for SEC-MALS; also called GFP-TPX2; wt-TPX2; source: recombinant, purified to >95% purity
B3: TPX2 C terminus (a.a. 480-716) (domain or fragment, Xenopus laevis, UniProt Q6NUF4 480-716, looked up)
chain: IKATRMPHYGVPFKPKLVEQRQVDVCPFSFCDRDKERQLQKEKRLDELRKDEVPKFKAQPLPQFDNIRLPEKKVKMPTQQEPFDLEIEKRGASKLQRWQQQIQEELKQQKEMVVFKARPNTVVHQEPFVPKKENRSLTESLSGSIVQEGFELATAKRAKERQEFDKCLAETEAQKSLLEEEIRKRREEEEKEEISQLRQELVHKAKPIRKYRAVEVKASDVPLTVPRSPNFSDRFKC
notes: TPX2, Xenopus laevis, amino acids 480-716 (ordered C-terminal region); also called TPX2's C terminus; source: recombinant, purified to >95% purity
B4: importin-αΔIBB (truncated importin-α without the importin-β-binding domain) (domain or fragment)
chain: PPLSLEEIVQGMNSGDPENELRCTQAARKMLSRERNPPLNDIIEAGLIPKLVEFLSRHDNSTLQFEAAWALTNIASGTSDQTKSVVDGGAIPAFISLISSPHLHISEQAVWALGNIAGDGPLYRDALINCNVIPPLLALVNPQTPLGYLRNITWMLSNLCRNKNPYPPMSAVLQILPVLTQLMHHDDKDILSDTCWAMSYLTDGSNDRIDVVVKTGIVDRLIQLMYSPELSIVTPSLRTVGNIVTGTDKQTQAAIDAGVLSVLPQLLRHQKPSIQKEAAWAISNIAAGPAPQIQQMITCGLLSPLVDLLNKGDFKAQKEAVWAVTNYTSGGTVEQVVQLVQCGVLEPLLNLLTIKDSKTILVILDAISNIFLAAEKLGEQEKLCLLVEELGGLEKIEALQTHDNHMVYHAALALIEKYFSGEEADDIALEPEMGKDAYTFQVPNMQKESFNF
B5: importin-α/β heterodimer (complex)
chain 1: not shown
chain 2: MELVTILEKTVSPDRNELEAAQKFLEQAAVENLPTFVVELSKVLANPANSQVARVAAGLQIKNPLTSRDPDVKAQYQQRWLAIDASARGEIKTYVLRTLGTESYRPSSASQCVAGIACAEITVNQWPQLIPQLVANVTDPNSTERMKESTLEAIGYICQDIDPEQLQHKSNEILTAIIQGMRKEEPSNNVRLAATNALLNSLEFTKANFDKESERHYIMQVVCEATQCPDTRVRVAALQNLVKIMSLYYQYMETYMGPALFAITVEAMKNEIDEVALQGIEFWSNVCDEEMDLAIEASEAAEQGRPPEHTSKFYAKGALQYLVPILTQTLTKQDENDDDDDWNPCKAAGVCLMLLATCCEDDIVPHVLPFIKEHIKNPDWRYRDAAVMAFGCILEGPESCQLKPLVIQAMPTLIELMKDPSVVVRDTTAWTVGRICELLPEAAINDVYLAPLLQCLIEGLGAEPRVASNVCWAFSSLAEAAYEAADVADDQEEPSSYCLSSSFEVIVQKLLETTDRPDGHQNNLRSAAYEALMEIVKNSAKDCYPAVQKTTLVIMERLQQVLQVESHIQSTSDRIQFNDLQSLLCATLQNVLRKVQHQDALQISDVVMASLLRMFQSTAGSGGVQEDALMAVSTLVEVLGAEFLKYMEAFKPFLTIGLKNYAEYQVCLAAVGLVGDLCRALQSNILPFCDEMMQFLLENLGNENVHRSVKPQILSVFGDVALAIGGEFKKYLDVVLNTLQQASQAQVDKSDYDMVDYLNELREGCIEAYTGIIQGLKGDQENVHPDVMLVQPRVEFILSFIDHIAGDEDHTDSVVACGAGLIGDLCTAFGKDVLKLVEARPMIHELLTEGRRSKTNKTKTLATWATKELRKLKNQA
B6: importin-β (natural protein, Xenopus laevis, UniProt P52297 1-876, looked up)
chain: B5 chain 2
notes: importin-β, Xenopus laevis; Construct in the Supplemental information; The UniProt entry recalled may be a fragment; also called importin-β alone; source: recombinant, purified to >95% purity

For data set [1], the target named is B6. The data set can be described thus: BLI; Octet (ForteBio); TPX2 attached to sensors, importin concentration varied; normalized amplitudes; apparent Kd. To be noted: both partners purified.
Data set [2] concerns the target B5. The data set is described as above. To be noted: both partners purified.
In data set [3] the target is B2. The data set can be described thus: SEC-MALS; Superdex-200-increase 3.2/300; importin-αΔIBB alone and TPX2 (2 μM) with importin-αΔIBB (20 μM). Conditions: both partners purified.
Data set [4] concerns the molecule itself. Described as above.
For data set [5], the target named is B2. The data set can be described thus: cell-based or functional assay.
Data set [6] deals with B2. The data set can be described thus: BLI; Octet (ForteBio); TPX2 attached to sensors, importin concentration varied; normalized amplitudes; apparent Kd. To be noted: both partners purified.
Data set [7] has as its target T1, TPX2 1 to 178 with the KKLK motif mutated (K123A, K124A, K126A) (Xenopus laevis, UniProt Q6NUF4 1-178, K123A | K124A | K126A).
T1 construct: TPX2, Xenopus laevis, amino acids 1-178 with the lysines of KKLK (123-126) mutated to alanines; also called TPX2 1 to 178 (K123A, K124A, K126A); source: recombinant, purified to >95% purity
T1 sequence (looked up): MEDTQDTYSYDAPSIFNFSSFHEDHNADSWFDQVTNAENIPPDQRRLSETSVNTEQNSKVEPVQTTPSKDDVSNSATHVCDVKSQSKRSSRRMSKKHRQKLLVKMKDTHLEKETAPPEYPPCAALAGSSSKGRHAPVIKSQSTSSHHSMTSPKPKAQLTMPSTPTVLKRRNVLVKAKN
Described as above. To be noted: both partners purified.

Data set [8] concerns the target triple-mutant TPX2 (3M-TPX2) (Xenopus laevis, UniProt Q6NUF4 1-716, K123A | K124A | K126A | K284A | R285A | K327A | K330A). The data set is described as above. Conditions: both partners purified.
Data set [9] concerns the target T2, TPX2 construct 1 to 178 (Xenopus laevis, UniProt Q6NUF4 1-178).
T2 construct: TPX2, Xenopus laevis, amino acids 1-178; also called wild-type-1-178 TPX2 construct; TPX2 1 to 178; source: recombinant, purified to >95% purity
T2 sequence (looked up): T1 sequence (looked up) with A123K, A124K, A126K
Described as above. Conditions: both partners purified.

Data set [10] deals with T3, TPX2 construct 1 to 260 (Xenopus laevis, UniProt Q6NUF4 1-260).
T3 construct: TPX2, Xenopus laevis, amino acids 1-260; also called TPX2 1 to 260; source: recombinant, purified to >95% purity
T3 sequence (looked up): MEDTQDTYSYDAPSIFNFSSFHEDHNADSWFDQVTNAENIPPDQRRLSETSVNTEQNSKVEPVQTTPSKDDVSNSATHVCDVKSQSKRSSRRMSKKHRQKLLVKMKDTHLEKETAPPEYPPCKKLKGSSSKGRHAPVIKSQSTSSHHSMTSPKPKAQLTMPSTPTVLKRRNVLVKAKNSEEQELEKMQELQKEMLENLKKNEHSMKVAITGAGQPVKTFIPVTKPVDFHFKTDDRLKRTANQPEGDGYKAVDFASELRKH
Described as above. To be noted: both partners purified.

Data set [11] addresses B2. The data set can be described thus: SEC-MALS; Superdex-200-increase 3.2/300 in line with a Wyatt light scattering machine; GFP-TPX2 alone, importin-α/β alone and TPX2 with importin-α/β (TPX2 printed as 5 M, importin-α/β 15 μM). To be noted: both partners purified.
Data set [12] concerns the target GST-importin-α (Xenopus laevis). The data set is described as above. Conditions: both partners purified.

Positions count from the first letter of the chain named. A value given as a limit tells only on which side of the number the result lay.

GST-importin-α (Xenopus laevis), sequence (chain, as listed by the source): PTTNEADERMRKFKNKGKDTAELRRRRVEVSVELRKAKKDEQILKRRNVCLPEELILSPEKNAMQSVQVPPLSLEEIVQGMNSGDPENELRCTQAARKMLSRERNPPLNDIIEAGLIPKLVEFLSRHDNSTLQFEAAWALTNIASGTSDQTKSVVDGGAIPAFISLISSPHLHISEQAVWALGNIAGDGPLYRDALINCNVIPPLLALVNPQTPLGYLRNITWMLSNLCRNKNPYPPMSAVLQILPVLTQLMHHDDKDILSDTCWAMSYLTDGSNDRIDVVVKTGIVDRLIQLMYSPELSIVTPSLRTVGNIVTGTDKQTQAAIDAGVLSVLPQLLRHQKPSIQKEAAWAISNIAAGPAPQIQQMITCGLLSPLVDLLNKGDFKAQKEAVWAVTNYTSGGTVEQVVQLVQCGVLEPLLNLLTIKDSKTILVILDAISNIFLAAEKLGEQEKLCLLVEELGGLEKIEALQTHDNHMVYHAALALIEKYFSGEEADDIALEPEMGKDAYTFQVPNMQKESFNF

In the case of B1, in data set [1], the Kd was 0.512 ± 0.07 µM.

B2: the Kd came out at 0.075 ± 0.015 µM in data set [2] and 0.53 ± 0.075 µM in [1].

As to B3, the Kd in data set [1] is above 4 µM.

B4: the “stoichiometry N” value is > 1 importin-αΔIBB:TPX2 in data set [3] and 2 in data set [4]. Also, in data set [5], the “inhibition of TPX2 condensation (fluorescence microscopy; TPX2 1 μM, importin-αΔIBB 1x to 20x; enhancement at lower concentrations)” value was around 20 fold excess. Besides, the Kd in [6] is 0.061 ± 0.01 µM; in data set [8], 0.41 ± 0.07 µM; in data set [9] it was 0.015 ± 0.003 µM; in data set [10], 0.02 ± 0.004 µM. Further, the “fold loss of binding against the wild-type 1-178 construct” value in data set [7] came out at 10 fold.

On to B5, for which the “stoichiometry N” value in [11] is 1 TPX2:importin-α:importin-β. Moreover, the “inhibition of TPX2 condensation (fluorescence microscopy; TPX2 1 μM, importin-α/β in molar excess)” value in [5] stood at 2 fold excess.

As for B6, the “stoichiometry N” value in data set [12] was 1 importin-α:importin-β. Moreover, the “TPX2-mediated branching microtubule nucleation in Xenopus egg cytosol (TIRF microscopy; TPX2 150 nM, importin-β 2.5x to 20x)” value in data set [5] was determined as 10 fold molar excess.
